Test results published in the Immune Epitope Database (IEDB).
pKd: −log10 of the molar value.

Target: HLA-A*02:01
Test: IEDB peptide-MHC binding, purified MHC/competitive/radioactivity; filed as Kd, often an IC50 or EC50 that approximates it; ≥ and ≤ were set here for values at or beyond the usual limits of such assays
Settings: source organism: Trypanosoma cruzi

| Sequence | pKd |
| --- | --- |
| FLLLGLWGFA | 6.68 |
| FLYNRPLSV | 6.84 |
| FVDYNFTIV | 6.62 |
| FVNHDFTVV | 6.52 |
| GIRPYEILA | 7.48 |
| IAGGVMAVV | 6.71 |
| IVMGNGTLV | 6.00 |
| KLFPEVIDL | 6.69 |
| LLGLWGLTGL | 8.89 |
| LLLGLWGFAA | 6.27 |
| LLLLGLWGL | 7.66 |
| LLPSLFLLL | 6.90 |
| LLYSDDALHL | 6.50 |
| MLQDGNKGSV | 6.08 |
| PLLLLGLWGL | 6.19 |
| SVYVDAKLV | 6.99 |
| VLAKDGTEV | 7.17 |
| VLLPSLFLL | 7.44 |
| VLLPSLFLLL | 7.00 |
| WVFPESISPV | 6.96 |
